Source: patent US20210309702A1

Target: signal regulatory protein a (SIRPa) (mouse) (UniProt P97797)
Test: cell-based or functional assay

UniProt P97797, sequence (P97797 32-513): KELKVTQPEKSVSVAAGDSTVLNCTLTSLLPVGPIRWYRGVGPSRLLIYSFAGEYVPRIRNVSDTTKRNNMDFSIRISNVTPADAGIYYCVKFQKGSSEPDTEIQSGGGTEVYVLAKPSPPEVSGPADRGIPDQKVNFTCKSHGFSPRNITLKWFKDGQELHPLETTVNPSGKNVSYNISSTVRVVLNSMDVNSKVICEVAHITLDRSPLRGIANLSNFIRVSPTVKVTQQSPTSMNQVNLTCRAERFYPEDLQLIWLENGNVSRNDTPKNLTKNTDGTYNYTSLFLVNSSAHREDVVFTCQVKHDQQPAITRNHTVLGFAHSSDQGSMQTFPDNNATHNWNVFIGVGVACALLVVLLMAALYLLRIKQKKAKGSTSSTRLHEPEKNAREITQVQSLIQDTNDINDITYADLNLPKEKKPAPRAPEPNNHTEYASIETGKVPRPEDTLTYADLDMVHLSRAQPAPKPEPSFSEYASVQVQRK

Substance: Myc and GFP11-tagged mouse CD47 (CD47-Myc-GFP11) (from UniProt Q61735 19-303)
- Gectosomes depleted by RAW 264.7 macrophages after 3 h (BlaM activity remaining in the media): 10 % depleted
- Gectosomes depleted by RAW 264.7 macrophages after 6 h (BlaM activity remaining in the media): 50 % depleted
